The target of assay [1] is T1, human GARP (glycoprotein A repetitions predominant, LRRC32) on the cell surface (human, UniProt Q14392 20-662).
T1 construct: whole, on cells; also called hGARP; free GARP
T1 sequence (looked up): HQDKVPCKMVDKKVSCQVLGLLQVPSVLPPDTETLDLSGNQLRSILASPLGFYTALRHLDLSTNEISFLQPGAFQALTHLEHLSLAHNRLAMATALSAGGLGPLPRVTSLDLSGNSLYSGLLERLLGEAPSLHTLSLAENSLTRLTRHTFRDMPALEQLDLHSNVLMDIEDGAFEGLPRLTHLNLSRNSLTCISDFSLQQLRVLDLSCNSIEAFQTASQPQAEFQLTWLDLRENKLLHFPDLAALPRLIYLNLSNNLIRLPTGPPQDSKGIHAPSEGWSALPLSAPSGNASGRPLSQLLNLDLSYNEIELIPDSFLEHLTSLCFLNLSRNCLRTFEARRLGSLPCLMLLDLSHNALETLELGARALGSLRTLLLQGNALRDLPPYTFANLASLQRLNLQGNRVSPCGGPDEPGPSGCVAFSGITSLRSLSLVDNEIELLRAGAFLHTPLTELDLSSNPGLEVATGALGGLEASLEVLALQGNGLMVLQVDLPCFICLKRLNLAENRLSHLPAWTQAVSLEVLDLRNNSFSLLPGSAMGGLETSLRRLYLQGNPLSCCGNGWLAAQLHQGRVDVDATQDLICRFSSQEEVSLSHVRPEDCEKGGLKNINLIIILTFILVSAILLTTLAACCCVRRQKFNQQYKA
Briefly: FACS, Ag(+) cells, 0 ug/ml antibody (blank). For orientation: In flow cytometry, cells or beads pass a laser one at a time.

In assay [2] the target is T1, human GARP (glycoprotein A repetitions …). Briefly: FACS, Ag(+) cells, culture supernatant, 1 ug/ml.
Assay [3] has the same target. In words: FACS, Ag(+) cells, culture supernatant, 5 ug/ml.
The target is the same in assay [4]. In words: FACS, Ag(+) cells, culture supernatant, 0.2 ug/ml.
Assay [5] has the same target. Briefly: FACS, Ag(+) cells, supernatant heated 70 C 5 min, 5 ug/ml.
The target is the same in assay [6]. Briefly: FACS, Ag(+) cells, heated-sample series, 0 ug/ml antibody (blank).
Assay [7] addresses T2, human GARP (antigen, construct not stated) (human, UniProt Q14392 20-627, limits assumed).
T2 sequence (looked up): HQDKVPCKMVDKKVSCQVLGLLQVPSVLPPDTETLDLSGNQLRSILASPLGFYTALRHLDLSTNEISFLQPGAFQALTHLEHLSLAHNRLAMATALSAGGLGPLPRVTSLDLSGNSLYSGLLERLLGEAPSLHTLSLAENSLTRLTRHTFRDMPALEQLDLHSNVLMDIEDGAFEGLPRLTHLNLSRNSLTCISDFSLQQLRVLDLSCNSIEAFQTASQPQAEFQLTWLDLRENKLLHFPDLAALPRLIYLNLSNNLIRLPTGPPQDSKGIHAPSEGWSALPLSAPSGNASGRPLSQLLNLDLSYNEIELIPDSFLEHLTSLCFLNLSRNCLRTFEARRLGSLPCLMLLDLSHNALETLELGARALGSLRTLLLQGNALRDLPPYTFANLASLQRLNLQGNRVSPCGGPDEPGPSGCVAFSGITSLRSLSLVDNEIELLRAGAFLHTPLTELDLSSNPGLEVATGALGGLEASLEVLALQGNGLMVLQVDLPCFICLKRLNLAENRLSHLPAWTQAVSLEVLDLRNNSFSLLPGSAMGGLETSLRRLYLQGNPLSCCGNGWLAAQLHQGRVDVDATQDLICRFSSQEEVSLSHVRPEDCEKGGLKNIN
In words: Gator label-free kinetics, IgG on anti-human Fc probe, antigen 5 ug/ml.

The target in assay [8] is T1, human GARP (glycoprotein A repetitions …). In words: FACS, Ag(+) cells, supernatant heated 70 C 5 min, 1 ug/ml.
For assay [9] the target is unchanged. Briefly: FACS, Ag(+) cells, supernatant heated 70 C 5 min, 0.2 ug/ml.

B1: huPIIO-1VH1VL1 (antibody, V domains shown)
VH: QVQLQESGPGLVKPSQTLSLTCTVSGYSITSDYAWNWIRQFPGNKLEWMGYISYSGSTSYTPSLKSRVTISRDTSKNHFSLKLSSVTAADTAVYYCAKSGGDYYGSSSYWYFDVWGQGTMVTVSS
VL: DIVLTQSPSSLAVSLGERATMNCKSSQSLLNSRSQKNYLAWYQQKPGQPPKLLIYGASTRGSGVPDRFSGSGSGTDFTLTISSLQAEDVAVYYCQNDHSYPFTFGQGTKLEIKR
notes: Humanized 4D3/PIIO-1 IgG made in Expi293 cells; also called H1L1; HuPIIO-1VH1/L1
Broadly, the Kd is the free concentration of one partner at which half of the binding sites on the other are occupied at equilibrium, for simple one-to-one binding. High values mean a looser complex, low ones a tighter complex. For the molecule B1, the MFI in [1] came out at 9.91 MFI; in assay [2], 25.8 MFI; in [3], 26.4 MFI; in [4], 23.9 MFI; in assay [5], 26.2 MFI; in assay [6] it was 9.91 MFI. The Kd in [7] was found to be 8.05 nM. This molecule also yielded a Req in assay [7] of 0.743. The molecule also registered a Response in assay [7] of 0.737. The kobs in [7] was found to be 0.0134.

B2: huPIIO-1VH2VL2 (antibody, V domains shown)
VH: QVQLQESGPGLVKPSQTLSLTCTVSGYSITSDYAWNWIRQFPGNKLEWMGYISYSGSTSYTPSLKSRITISRDTSKNHFFLKLSSVTAADTAVYYCAKSGGDYYGSSSYWYFDVWGQGTMVTVSS
VL: DIVLTQSPSSLAVSLGERVTMNCKSSQSLLNSRSQKNYLAWYQQKPGQPPKLLIYGASTRGSGVPDRFSGSGSGTDFTLTISSVQAEDVAVYYCQNDHSYPFTFGQGTKLEIKR
notes: Humanized IgG from Expi293, tested as culture supernatant; also called H2L2; HuPIIO-1VH2/L2
Turning to B2, the MFI in [1] is 9.91 MFI; in [3], 26.2 MFI; in [4], 23.2 MFI; in [8] it was 24.8 MFI; in [5], 26.1 MFI; in assay [9], 22.6 MFI. The molecule also came in with an MFI in assay [6] of 9.91 MFI.

B3: huPIIO-1VH2VL1 (antibody, V domains shown)
VH: QVQLQESGPGLVKPSQTLSLTCTVSGYSITSDYAWNWIRQFPGNKLEWMGYISYSGSTSYTPSLKSRITISRDTSKNHFFLKLSSVTAADTAVYYCAKSGGDYYGSSSYWYFDVWGQGTMVTVSS
VL: DIVLTQSPSSLAVSLGERATMNCKSSQSLLNSRSQKNYLAWYQQKPGQPPKLLIYGASTRGSGVPDRFSGSGSGTDFTLTISSLQAEDVAVYYCQNDHSYPFTFGQGTKLEIKR
notes: Humanized IgG from Expi293; also called H2L1; HuPIIO-1VH2/L1
On to B3, for which the MFI in [1] turned out to be 9.91 MFI; in assay [3] it was 26.8 MFI; in assay [4] it was 23.3 MFI; in assay [8], 25.1 MFI; in assay [5] it was 26.2 MFI; in [9] it was 23 MFI. Moreover, the MFI in [6] stood at 9.91 MFI. In assay [7], this molecule had an equilibrium dissociation constant (Kd) of 8.03 nM. In assay [7], this molecule showed a Req of 0.71. Further, the Response in assay [7] was 0.703. Further, the kobs in assay [7] was determined as 0.0133.

B4: huPIIO-1VH3VL3 (antibody, V domains shown)
VH: DVQLQESGPGLVKPSQTLSLTCTVSGYSITSDYAWNWIRQFPGNKLEWMGYISYSGSTSYTPSLKSRITISRDTSKNHFFLKLSSVTAADTATYYCAKSGGDYYGSSSYWYFDVWGQGTTVTVSS
VL: DIVLTQSPSSLAVSAGERVTMSCKSSQSLLNSRSQKNYLAWYQQKPGQPPKLLIYGASTRGSGVPDRFSGSGSGTDFTLTISSVQAEDVAVYYCQNDHSYPFTFGSGTKLEIKR
notes: Humanized IgG from Expi293, tested as culture supernatant; also called H3L3; HuPIIO-1VH3/L3
Regarding B4, the MFI in assay [1] came to 9.91 MFI; in assay [2] it was 25.3 MFI; in [3] it was 26.2 MFI; in assay [4] it was 21.9 MFI; in assay [8], 24.6 MFI; in assay [5], 25.8 MFI. The MFI in [9] came to 22.1 MFI; in assay [6], 9.91 MFI.

B5: huPIIO-1VH1VL3 (antibody, V domains shown)
VH: QVQLQESGPGLVKPSQTLSLTCTVSGYSITSDYAWNWIRQFPGNKLEWMGYISYSGSTSYTPSLKSRVTISRDTSKNHFSLKLSSVTAADTAVYYCAKSGGDYYGSSSYWYFDVWGQGTMVTVSS
VL: DIVLTQSPSSLAVSAGERVTMSCKSSQSLLNSRSQKNYLAWYQQKPGQPPKLLIYGASTRGSGVPDRFSGSGSGTDFTLTISSVQAEDVAVYYCQNDHSYPFTFGSGTKLEIKR
notes: Humanized IgG from Expi293, tested as culture supernatant; also called H1L3; HuPIIO-1VH1/L3
Consider B5, for which the MFI in [1] is 9.91 MFI; in [2] it was 25.7 MFI; in assay [3] it was 26.3 MFI; in assay [4], 22.9 MFI; in assay [8], 25.4 MFI; in assay [5], 26.3 MFI. For the same molecule, the figures for the MFI in [9] and in assay [6] were 23 MFI and 9.91 MFI, respectively.

B6: huPIIO-1VH2VL3 (antibody, V domains shown)
VH: QVQLQESGPGLVKPSQTLSLTCTVSGYSITSDYAWNWIRQFPGNKLEWMGYISYSGSTSYTPSLKSRITISRDTSKNHFFLKLSSVTAADTAVYYCAKSGGDYYGSSSYWYFDVWGQGTMVTVSS
VL: DIVLTQSPSSLAVSAGERVTMSCKSSQSLLNSRSQKNYLAWYQQKPGQPPKLLIYGASTRGSGVPDRFSGSGSGTDFTLTISSVQAEDVAVYYCQNDHSYPFTFGSGTKLEIKR
notes: Humanized IgG from Expi293, tested as culture supernatant; also called H2L3; HuPIIO-1VH2/L3
As for B6, the MFI was 9.91 MFI in assay [1]; 25.6 MFI in [2]; 26.5 MFI in assay [3]; 23.4 MFI in assay [4]; 25.4 MFI in [8]; 26.4 MFI in assay [5]. Further, the MFI in assay [9] is 23.2 MFI; in [6] it was 9.91 MFI.

B7: huPIIO-1VH3VL1 (antibody, V domains shown)
VH: DVQLQESGPGLVKPSQTLSLTCTVSGYSITSDYAWNWIRQFPGNKLEWMGYISYSGSTSYTPSLKSRITISRDTSKNHFFLKLSSVTAADTATYYCAKSGGDYYGSSSYWYFDVWGQGTTVTVSS
VL: DIVLTQSPSSLAVSLGERATMNCKSSQSLLNSRSQKNYLAWYQQKPGQPPKLLIYGASTRGSGVPDRFSGSGSGTDFTLTISSLQAEDVAVYYCQNDHSYPFTFGQGTKLEIKR
notes: Humanized IgG from Expi293, tested as culture supernatant; also called H3L1; HuPIIO-1VH3/L1
With B7, the MFI in assay [1] stood at 9.91 MFI; in assay [2], 25.1 MFI; in assay [3], 26.7 MFI; in assay [4] it was 23.9 MFI; in assay [5], 25.7 MFI; in [9], 23.6 MFI. The molecule further had an MFI in assay [6] of 9.91 MFI.

B8: huPIIO-1VH1VL2 (antibody, V domains shown)
VH: QVQLQESGPGLVKPSQTLSLTCTVSGYSITSDYAWNWIRQFPGNKLEWMGYISYSGSTSYTPSLKSRVTISRDTSKNHFSLKLSSVTAADTAVYYCAKSGGDYYGSSSYWYFDVWGQGTMVTVSS
VL: DIVLTQSPSSLAVSLGERVTMNCKSSQSLLNSRSQKNYLAWYQQKPGQPPKLLIYGASTRGSGVPDRFSGSGSGTDFTLTISSVQAEDVAVYYCQNDHSYPFTFGQGTKLEIKR
notes: Humanized IgG from Expi293; also called H1L2; HuPIIO-1VH1/L2
With B8, the MFI in assay [1] is 9.91 MFI; in [2], 25.2 MFI; in assay [3], 26.1 MFI; in assay [4] it was 22.2 MFI; in assay [5], 25.7 MFI; in assay [9], 21.8 MFI. The molecule also came in with an MFI in assay [6] of 9.91 MFI. In [7], this molecule had a Kd of 8.15 nM. The Req in [7] amounted to 0.831. In addition, the Response in [7] worked out at 0.824. Further, in [7], the kobs worked out at 0.0133.

B9: huPIIO-1VH3VL2 (antibody, V domains shown)
VH: DVQLQESGPGLVKPSQTLSLTCTVSGYSITSDYAWNWIRQFPGNKLEWMGYISYSGSTSYTPSLKSRITISRDTSKNHFFLKLSSVTAADTATYYCAKSGGDYYGSSSYWYFDVWGQGTTVTVSS
VL: DIVLTQSPSSLAVSLGERVTMNCKSSQSLLNSRSQKNYLAWYQQKPGQPPKLLIYGASTRGSGVPDRFSGSGSGTDFTLTISSVQAEDVAVYYCQNDHSYPFTFGQGTKLEIKR
notes: Humanized IgG from Expi293, tested as culture supernatant; also called H3L2
B9: the MFI in [1] worked out at 9.91 MFI; in assay [2], 24.9 MFI; in [3], 26.4 MFI; in [4] it was 22.7 MFI; in assay [8], 24.6 MFI; in [5], 26.5 MFI. Further, the MFI in [9] amounted to 22.7 MFI; in [6], 9.91 MFI.

These data come from patent US20240425571A1 (OHIO STATE INNOVATION FOUNDATION, published 2024).
